pKd: −log10 of the molar value.

Data on one substance can be found in PMC3684052.

For test [1], the target named is GST-KRIT1 (residues 170–198), wild type (human) (UniProt O00522). The test can be described thus: SPR. (SPR reads the build-up and loss of mass on a sensor chip optically.)
Test [2] has as its target GST-integrin β1 fusion protein (residues 752 to 798), wild type (UniProt P05556). Briefly: SPR.

Sequence of GST-KRIT1 (residues 170–198), wild type (human) (O00522 170-198): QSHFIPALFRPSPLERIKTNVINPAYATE
Sequence of GST-integrin β1 fusion protein (residues 752 to 798), wild type (P05556 752-798): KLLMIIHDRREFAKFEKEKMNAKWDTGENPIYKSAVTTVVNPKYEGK

For orientation: pKd means −log10 of the Kd, conventionally taken in molar units. Low readings indicate a large Kd, high ones a small Kd. Take “ICAP1 (analyte of the surface plasmon resonance) (from UniProt O14713 1-200) (domain or fragment)”: the pKd in test [1] is 5.91; in test [2], 5.30.
